The results in this text go back to publication PMC9940316 (2023).

This assay deals with human plasma IgG1 (human, UniProt P01857 = IgG part). As to the kind of experiment: SPR; pH 7.

B1: FcγRIIa (receptor)
chain: QAAAPPKAVLKLEPPWINVLQEDSVTLTCQGARSPESDSIQWFHNGNLIPTHTQPSYRFKANNNDSGEYTCQTGQTSLSDPVHLTVLSEWLVLQTPHLEFQEGETIMLRCHSWKDKPLVKVTFFQNGKSQKFSHLDPTFSIPQANHSHSGDYHCTGNIGYTLFSSKPVTITVQVPSMGSSSPMGIIVAVVIATAVAAIVAAVVALIYCRKKRISANSTDPVKAAQFEPPGRQMIAIRKRQLEETNNDYETADGGYMTLNPRAPTDDDKNIYLTLPPNDHVNSNN
As for B1, the affinity, expressed as Kd, was 1300 nM.
